# In the DeepSol protein solubility set:
# Assay: soluble on expression in E. coli; label from the status in PepcDB or PDB records
row,Sequence,soluble on expression in E. coli
1,MSLNKQDKKWRVLVVDDDADVLTNTVYTLMDLKVLGRELDITTLGSATAAIELLERERDFAVILLDVVMEKPHAGLSLVTMIRHDFNMQMSRIILRTGNPGYAPERDITLKLEIDDYILKQTAVRDRIITAVIVAIRAYDQLQRLARLKDAMQQIICCSNQLLTTDEIDQFANVCMQYVAPIFGKNAGGGLAYAGMTVNQGIVPLTVMSATSEHESLIEPLNGIGVLPPNISVTKKKMTKALEQTNSIKTDKDWYIYIKVSLGRKVVLWLNKPDGFDEIDETLGKSFANTIKACLDREGHHHHHH,soluble
2,MMVLRMKVEWYLDFVDLNYEPGRDELIVEYYFEPNGVSPEEAAGRIASESSIGTWTTLWKLPEMAKRSMAKVFYLEKHGEGYIAKIAYPLTLFEEGSLVQLFSAVAGNVFGMKALKNLRLLDFHPPYEYLRHFKGPQFGVQGIREFMGVKDRPLTATVPKPKMGWSVEEYAEIAYELWSGGIDLLKDDENFTSFPFNRFEERVRKLYRVRDRVEAETGETKEYLINITGPVNIMEKRAEMVANEGGQYVMIDIVVAGWSALQYMREVTEDLGLAIHAHRAMHAAFTRNPRHGITMLALAKAARMIGVDQIHTGTAVGKMAGNYEEIKRINDFLLSKWEHIRPVFPVASGGLHPGLMPELIRLFGKDLVIQAGGGVMGHPDGPRAGAKALRDAIDAAIEGVDLDEKAKSSPELKKSLREVGLSKAKVGVQH,soluble
3,MTTKRIDRDLPSSDDPSSAKRRIEFPEETLENDGAAAIKLLSLLLQCAEYVATDHLREASTLLSEISEICSPFGSSPERVVAYFAQALQTRVISSYLSGACSPLSEKPLTVVQSQKIFSALQTYNSVSPLIKFSHFTANQAIFQALDGEDSVHIIDLDVMQGLQWPALFHILASRPRKLRSIRITGFGSSSDLLASTGRRLADFASSLNLPFEFHPIEGIIGNLIDPSQLATRQGEAVVVHWMQHRLYDVTGNNLETLEILRRLKPNLITVVEQELSYDDGGSFLGRFVEALHYYSALFDALGDGLGEESGERFTVEQIVLGTEIRNIVAHGGGRRKRMKWKEELSRVGFRPVSLRGNPATQAGLLLGMLPWNGYTLVEENGTLRLGWKDLSLLTASAWKSQPFD,soluble
4,MGSDKIHHHHHHMHVEDYMNETPACLLAMLTQTREDLWQAAKALTERGVTRIILTGSGTSYHGALTARSFMQQWCGLPVDVYWPFLLDDSALTLSDKALVIGISQGGGSLSTLAAMERARAAGHLTASMAGEAPAVIDRAADLVLTVPCGEERAGAKTKGYHCTILNLMLLGLAVASRQRRLSDEERKALLIRMDTTFNHLPTLIEASQAWVLNHARPLIDSADIRLTGPARLFGTVQEGALKMLETLRCPVAGYEFEEFIHGIYNAFDERSTLIMLDPFPDERQDRLAEILGGWTQHIYRIGPQVENNGKNMPFAFINDPDFAVFEYIIPLQMVCARLPPVKGIDPAIPKDPQFHQKMKSKQLN,not soluble
5,KFGGINETYLPPNNTVRTAQASFDENFPHFRTEPIKLVITGATNQQLVDVYQQANKVEGLTDRFKPSSATKDGTTVLSAGIENREDNAKVVEQLRAIDAPEGVSVYIGGIPAMEVESIEALFDKLP,not soluble
6,MGSDKIHHHHHHMMAKGTLCVLDPASILVVAPHFKRRLSGVTSTVVQLIPQQRRRGLAIATLGPGLPETMPALTFAQMPALWKKPRGASHRVWHARRNLEMLVGVVLRDVLRMPLKLLFTSAAQRHHSRYTRWLISKMDAVVATSARSGSFLHVPHSVIRHGIDTELFHPPQGAEDRIAATNLPGDYLIGCFGRVRHQKGTDLFVKAMIELLPRYPGWTAVVSGRVTPEHKGFAEGLKAQIAAASLTERIVFLGEVEDIKPWYRRLTLYVAPSRNEGFGLTPLEAMASETVVVASDAGAYAELIAEGATGAVVAADAYAPLRDAIEPYLADPGRACLHGKAAVAHVRENFALAREAAGLEAVYSRLLGRPVIAPPAPQP,not soluble
7,MAHHHHHHMNKSTVAGELRNIFSQGTNAYTVELYNAFYRDGTLSLVMEYMDWGNLEELIAICPTIPEPACAYIASQILHALQILHTKANHPTETDKKGRRQIHRDIKPANVMLSKNGVVKLTDFGIAASAETIGVNSFVGTATYMSPERIQGRNYSTPSDIWSVGVLTAQLLLGRFPFSAAEGGFMALLRQVTECCSLSLVDQCACSQKAEDFINHCICRNPDDRSTAIELLQHEWIVQNASNGKDVLTGLLGTVGEPAASSESDNS,not soluble
8,MGSDKIHHHHHHMNGSATRTVAGVSVPDTTIVARTLDYARLEYEPYLFNHVVRSWLFAVRIAQLRNIDHDAEVVAVGTLLHDVTLNERFDGPRRFEVEGADLARVFAREGGVDERRAQLIWDSVALNSTPSIGLYKEAEVALCTAGIGLDVIGFQYERIPSEEIARIVQEYPRLNMKRRMTKCFCHIAEKRPETTYDNFVRDFGERHILGYRAPSSVDLVANAPFDE,not soluble
9,MGEIIKESDKRVALKLPANVTEIDDRAFLGCTRLESIDLSACTSLTAIKLAAFKGCTSLKAVQLPQSLTTIGHFAFEGCTALKEVELPQNLTVIGTDAFKGCSIETLVIHCDIKGTIIENFTKKDEVNKNVKKLTLGKGVTTIGNYAFYIIGYSKLAAVDFSACTALTEIGENAFAYSKLTNVNLSACIKLTEIGKSAFSNCTDLTNVDLSGCTALTTIGEQAFNSCYEATVKLPTGITAIGNEAFGENDEDFLCKNVLIPRSHAATIKPLVTASDYPEDRIREY,not soluble
10,MGSDKIHHHHHHMALVKLQTQHFRNLLSAPVEFSPSFNLLYGANGSGKTSVLEAIGYLGLGRSFRVSRHQAVVAHGQSKLTVFGALDSGLLAQESSEKVEHRIGISRDVSLKETQLRVDGEAVRSLSFLAMHLPVSVIDPGVFDIVAGGPGKRRQFLDWLVFHVEPSFSSLWQQVQRVTSQRNQMLRNGRLDESLMRVWDSQYGALAESLSDIRETVFQRFKIAFESVLAELDAPWVEGLKMDFYPGWDRSTALTEVLVNHREQERRMGHTLYGPNRADIRLKFGGRPVAETFSRGQQKTLVILMKIAQGKVLSDLGKQVTFLLDDINAELDVRHRVMLARNLQELRCQVFITSIEHPEPDTLWHDGDTPEYRMFHVEHGQLTEE,not soluble
11,MSLGKRIFVFDTTLRDGEQVPGCQLNTEEKIIVAKALDELGVDVIEAGFPVSSPGDFNSVVEITKAVTRPTICALTRAKEADINIAGEALRFAKRSRIHTGIGSSDIHIEHKLRSTRENILEMAVAAVKQAKKVVHEVEFFCEDAGRADQAFLARMVEAVIEAGADVVNIPDTTGYMLPWQYGERIKYLMDNVSNIDKAILSAHCHNDLGLATANSLAALQNGARQVECTINGIGERAGNTALEEVVMAMECHKETLGLETGINHKKLVPISHLVSTLMRMQVQSNKAIVGRNAFAHSSGIHQDGFLKHRETYEIIDPAAVGADSSSIILTARSGRAALNHRLATIGYMLSKDQLDQAYTQFLDMADHLRKVEDENLHELMRGKVYAKEGHHHHHH,soluble
12,MKKKLTGVALVLAAVSLMGIQPAGACTRAVYLGPDRMVVTGRTMDWKEDIMSNIYVFPRGMQRAGHNKEKTVNWTSKYGSVIATGYDIGTCDGMNEKGLVASLLFLPESVYSLPGDTRPAMGISIWTQYVLDNFATVREAVDEMKKETFRIDAPRMPNGGPESTLHMAITDETGNTAVIEYLDGKLSIHEGKEYQVMTNSPRYELQLAVNDYWKEVGGLQMLPGTNRSSDRFVRASFYIHAIPQTADAKIAVPSVLSVMRNVSVPFGINTPEKPHISSTRWRSVSDQKNKVYYFESTLTPNLFWLDLKKIDFSPKAGVKKLSLTKGEIYAGDAVKDLKDSQSFTFLFETPVM,soluble
13,MAVPVRHLVAVTACVSGVAHTYMAAERLEKLCQQEKWSIKIETQGALGTENRLTEEDIRRADVVLLITDIELAGVERFTRSRYVQSGISAFLREPQRVMSAVRKLLSAPQHTHLILE,not soluble
14,MGSDKIHHHHHHMKYTYREAGVDVERGESFAKTIKSAVKLPEWVMKEPTGYASILTITTPPVVVTADGIGTKLILHRKHGTWRYAAEDLVGMNYNDLVCVGARPVAFLDYLGVERISEEHESFIKELVNVLDSVDVKLVGGETAEMPDVYRGDWDAVGFAVGVLEKRIPVDKIKEGDVIVGIPSSGFHSNGWSLIRRIIKEESIKIEELPFELLKGTRIYREVIELFDLVKGIAHVTGGGVVRALKRVLGKLGAHVSLPKRDFVDWILKYVDFNEAVNTFNMGVGMFLIVEKQKVDEVLARVDGTVVGKVSSDWRIEYGGEGG,not soluble
15,MGSDKIHHHHHHMIGICCLFIVTSCQNREPQGASIQGKDFAQSTEKSVIMVMIDSMTADLLDAAKEEGIIPGLSFLMENGTYFDELIAPFPSMSVVIESTLITGSLPDEHKVPGLVWYHAEEDRLVDYGSTPETYMKLGLNRVLFDDLSNLNNRHLSKDVPTIHEILQDSQMSTGSVNALVYRGNTSHKVNLPEPFDTWMQGQPFETKGPDLLSFGTIIEPKVIQAKELDDDHFLDLYGLNDSYGTAVVRTLIEKNEQPQFLFLFMPDFDQATHDHGQLNLEDFEKVDHAFQDILNSYDSWEQALEENIFIVIGDHGQSQIASTASDAIIPLPTLYEEYEIASLMDAPSDGEIVIANNHRMVYVYSFQPAHSFDTLANEALEDLRIQFAAYLEDDELVIKAPEHKEPLKVKKGGSWIDPYGQTWTIEGNEQIGDVFFDHDCKRIMYGENPDLFNQLFHALDSHTSTLVLTAKPGYIFESEGAPAHIGGGEHGGIHEEDTKAAMIIAGTDKAPAHLRMVDLKDFIIRLMTEEN,not soluble
16,MAGDPMKNKSLLLAVAISATLLAGCKNGVNGNLIASSGMSTYKAATLSDADVKALSNNACKQMDSENQLAGSKSKYTKRLSKIAKALGNNIDGTPVSYKVYMTSDINAWAMANGCVRVYSGLMDLMTDNEIEGVLGHELGHVSLGHSRKAMQTAYATLAARDAISATSGVAAQLSQSQLGDLAEGVINSAFSRSQESDADDFSYDLLKKRGINTQGLVTAFDKFATMDAGHAKSLMDSHPASADRAQHMRDRIAEDKKLEHHHHHH,soluble
17,MSLIGEILPLSHIVLDMEVGSKKRLFEEAGLLLERESSLSHADVFECLFAREKLGSTGLGQGVAIPHGRHAGVKQATGAFIRTREPVGFDAPDGKPVSLIFILLVPENATGEHLEVLSKLAGKFSQKSIRESLMTVSSAEEVRAILTEE,soluble
18,MAHHHHHHMGISEGFEGIGVYAGSISAFMKPAHEKADATFVTNGDGVLPCEQPGSQAAIQAAQADYMASVAMTGKLPSPPHAGAEAHLHAHMQASHTSSLPRRAPPAALNVTPRNPPMSLAADPKLLSSPTSASAARPAVAAAAAAIGVTARPATSSLSSSPRPQSHIAKGASRVTADGSRIMRNKEATDYYRALPQNELSKEDMWRRINEASADRAEATGTAIGSAEVDYIKLEDELRDFDLFHYRIGEMAYPDQAMRRDYYALWNLAMSLNKARWSMLEVHSQRGMKTTGAGMKLIFWKESVGAVMEKRKMCTGEFTDSHPVLRPFAAAVERNPHMTKAFVRGFTDARLRVIQQPGNVQQLFDHFDKFYGYFFNSLLEVTHIKDEATEHLMTHVGRATGLTNHCVMFWKKYARLGFTMLPADLCADNHVNLGLLKNIPLASRDRAVRKVLFDVMCIVKDEMLHAQKCAKDVPPKAWPIVMECLYANYYLGFLQRRDFNVSAMFADHNIENAGFTWYRLKKRWEWERYQSIERLVDEAAPLPYINTCFTHRGSHYKMASGVGSGAPQAQRKRS,not soluble
19,MGSDKIHHHHHHVENWDEVRTAYQVARLGTVSGAADVLGVHHATVIRHIDAIEARLGVKLFQRHARGYTATEAGLDLLRVAQATDDQFSQLVGRLKGQGDEVSGELVVTSLSSMAPMLAPALAEFQQLHPDLVIRYLTGDRLFRLEYGEAHVALRAGAAPEQPDNVVQPFVAQRLALYASREYVERHGMLKGQDDMVNHRFIASDNENTRAPFERWLRSTIPAENIVFRCSDAVAGHQAIRAGAGIGFVSLWEAASSPDLVMMMDPHDEWSGKIWLVTHVDLHRTNKVQSFVRFLKEHAKSWPQ,not soluble
